Patent US20060153840A1

Target: UNC5H2 on human umbilical artery endothelial cells (HUAEC) (human) (UniProt Q8IZJ1)
Experiment: cell-based or functional assay

UniProt Q8IZJ1, sequence (Q8IZJ1 other isoform, or with tags, fused parts or gaps limits assumed): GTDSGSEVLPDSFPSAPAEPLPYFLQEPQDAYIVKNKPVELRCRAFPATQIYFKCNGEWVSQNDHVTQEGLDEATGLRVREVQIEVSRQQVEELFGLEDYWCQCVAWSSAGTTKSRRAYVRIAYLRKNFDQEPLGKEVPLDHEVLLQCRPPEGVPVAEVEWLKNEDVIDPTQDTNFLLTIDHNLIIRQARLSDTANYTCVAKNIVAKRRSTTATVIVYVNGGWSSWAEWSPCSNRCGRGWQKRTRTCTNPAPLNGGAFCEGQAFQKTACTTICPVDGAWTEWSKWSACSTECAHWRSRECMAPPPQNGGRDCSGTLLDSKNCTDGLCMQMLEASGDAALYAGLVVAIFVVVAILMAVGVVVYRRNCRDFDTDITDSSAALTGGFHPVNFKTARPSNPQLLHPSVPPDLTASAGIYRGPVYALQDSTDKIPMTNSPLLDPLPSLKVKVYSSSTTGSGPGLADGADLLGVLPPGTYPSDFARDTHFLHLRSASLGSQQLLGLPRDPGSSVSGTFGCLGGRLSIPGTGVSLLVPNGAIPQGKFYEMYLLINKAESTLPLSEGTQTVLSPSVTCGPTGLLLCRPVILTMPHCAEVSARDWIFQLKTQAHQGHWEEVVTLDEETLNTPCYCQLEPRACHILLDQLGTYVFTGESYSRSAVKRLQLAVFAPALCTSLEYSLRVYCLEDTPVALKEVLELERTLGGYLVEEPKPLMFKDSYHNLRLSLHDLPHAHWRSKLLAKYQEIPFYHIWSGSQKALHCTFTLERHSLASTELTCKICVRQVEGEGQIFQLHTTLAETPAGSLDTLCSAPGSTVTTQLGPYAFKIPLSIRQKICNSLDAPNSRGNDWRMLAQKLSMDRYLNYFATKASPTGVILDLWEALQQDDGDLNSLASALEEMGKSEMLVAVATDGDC

## Netrin-1 secreted by stably transfected 293 cells (ligand)
  decrease in transwell migration of HUAEC: 40%
